# Data published in publication PMC4017264 (Molecular Cell, 2014).
# B1: HOIP extended PUB domain (aa 1–184) [not stated] / FITC-Ahx-labeled OTULIN PIM peptide (aa 49–67) [modified: FITC-Ahx label; FITC-Ahx label] [not stated] (parent complex)
# chain 1: MPGEEEERAFLVAREELASALRRDSGQAFSLEQLRPLLASSLPLAARYLQLDAARLVRCNAHGEPRNYLNTLSTALNILEKYGRNLLSPQRPRYWRGVKFNNPVFRSTVDAVQGGRDVLRLYGYTEEQPDGLSFPEGQEEPDEHQVATVTLEVLLLRTELSLLLQNTHPRQQALEQLLEDKVED
# chain 2: AEHEEDMYRAADEIEKEKE
# Variants of: B1
# Assay: fluorescence polarisation; triplicate
row,Variant,Kd [µM]
1,chain 1 MPGEEEERAFLVAREELASALRRDSGQAFSLEQLRPLLASSLPLAARYLQLDAARLVRCNAHGEPRNYLNTLSTALNILEKYGRNLLSPQRPRYWRGVKFNNPAFRSTVDAVQGGRDVLRLYGYTEEQPDGLSFPEGQEEPDEHQVATVTLEVLLLRTELSLLLQNTHPRQQALEQLLEDKVED [chain 1 V104A],2.03

# Variants of: B1
# Assay: fluorescence polarisation; triplicate
# Remark: another data set of the same source
row,Variant,Kd [µM]
1,chain 2 AEHEEDMFRAADEIEKEKE [chain 2 Y8F],64.5
2,chain 2 AEHEEDMWRAADEIEKEKE [chain 2 Y8W],21.3
3,chain 2 AEHEEAMYRAADEIEKEKE [chain 2 D6A],11.2
